Laboratory results published in patent US20030138452A1.

B1: IP10FBscFv38MH (murine IP-10 fused to scFv38 of the 38c13 lymphoma) (protein, part only; not given: scFv38 VH and VL, tags, not shown: small tags and cut ends)
chain, part: IPLARTVRCNCIHIDDGPVRMRAIGKLEIIPASLSCPRVEIIATMKKNDEQRCLNPESKTIKNLMKAFSQKRSKRAPEFNDQAPKSLE

Columns and labels:
[1] = target: chemokine receptors of MCP-3 on murine splenocytes and purified T cells; experiment: cell-based or functional assay
[2] = target: chemokine receptor of IP-10 on murine splenocytes and purified T cells (murine) (UniProt O88410); experiment: cell-based or functional assay
UniProt O88410, sequence (O88410 whole entry): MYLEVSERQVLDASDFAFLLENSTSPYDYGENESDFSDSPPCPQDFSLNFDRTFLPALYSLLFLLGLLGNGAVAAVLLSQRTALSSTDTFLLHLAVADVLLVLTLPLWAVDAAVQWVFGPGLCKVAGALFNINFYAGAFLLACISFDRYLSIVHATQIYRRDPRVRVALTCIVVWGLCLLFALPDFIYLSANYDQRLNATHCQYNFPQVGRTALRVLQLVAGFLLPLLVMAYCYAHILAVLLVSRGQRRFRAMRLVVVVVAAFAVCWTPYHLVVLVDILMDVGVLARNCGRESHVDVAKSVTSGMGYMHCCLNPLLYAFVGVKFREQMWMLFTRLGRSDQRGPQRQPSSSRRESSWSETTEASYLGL

Molecule | in vitro chemotaxis of murine lymphocytes (48-well microchemotaxis chamber): concentration of maximum activity [1] [µg/mL] | in vitro chemotaxis of murine lymphocytes (48-well microchemotaxis chamber): concentration of maximum activity [2] [µg/mL]
MCP3FBscFv38MH (MCP-3 fused to scFv38 of the 38c13 lymphoma) (from UniProt Q03366 24-97) | 100 | –
B1 | – | 100
